The target of this test is human CD40 (human, UniProt P25942 21-277). In words: cell binding (GpL luciferase, HT1080-CD40); single representative experiment.

The term Kd denotes the constant that tells how readily two partners part at equilibrium. A low value points to a tighter complex.

Chain of human CD40 (P25942 21-277): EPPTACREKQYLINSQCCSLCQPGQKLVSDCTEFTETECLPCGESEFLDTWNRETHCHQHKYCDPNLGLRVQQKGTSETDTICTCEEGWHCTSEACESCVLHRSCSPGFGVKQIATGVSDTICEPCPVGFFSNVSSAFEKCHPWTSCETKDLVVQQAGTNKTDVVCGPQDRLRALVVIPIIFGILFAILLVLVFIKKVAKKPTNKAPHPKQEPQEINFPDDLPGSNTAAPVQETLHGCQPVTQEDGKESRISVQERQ

B1: GpL-CD40L, a fusion protein of soluble CD40L and Gaussia princeps luciferase (GpL) (ligand)
chain: GDQNPQIAAHVISEASSKTTSVLQWAEKGYYTMSNNLVTLENGKQLTVKRQGLYYIYAQVTFCSNREASSQAPFIASLCLKSPGRFERILLRAANTHSSAKPCGQQSIHLGGVFELQPGASVFVNVTDPSQVSHGTGFTSFGLLKL
B1 gave a Kd of 0.14 µg/mL.
